Measured values reported in patent publication US20230212319A1, “NOVEL ANTIGEN BINDING DOMAINS AND SYNTHETIC ANTIGEN RECEPTORS INCORPORATING THE SAME” (University of Southern California, priority 2020, published 2023).

Tests used:
Type in all cases: cell-based
RAJI cells = test: JNG assay, co-culture with RAJI cells; conditions: co-culture with RAJI cells
How it was run: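 Read-out is NFAT-driven GFP measured by flow cytometry after ~4–18 h co-culture of SAR-expressing JNG cells with target cells (E:T about 1:2). SARs were introduced by lentiviral spinfection and selected with puromycin or blasticidin when possible; scores (+/- to 5+ ≈ 5–50% GFP+) are relative to parental JNG cells.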

SKOV-3 cells = test: JNG assay, co-culture with SKOV-3 cells; conditions: co-culture with SKOV-3 cells
Description: Cellular supernatant is collected and assayed for the induction of cytokines (e.g., IL2).
JNG (Jurkat cells expressing EGFP under an NFAT promoter) were infected with lentiviral vectors encoding different single chain and multi-chain SARs by spinfection in the presence of 8 µg/ml of Polybrene® (Sigma, Catalog no. H9268). The Jurkat-NFAT-GFP cells are engineered in such a way that the IL-2 promoter, which carries NFAT binding sites, is cloned upstream of the GFP gene. These cells have been used to study signaling via TCR and CAR. The different SARs were stably expressed in Jurkat NFAT-GFP cells by lentiviral mediated gene transfer, followed by selection with puromycin or blasticidin. No drug selection was used in case the construct lacked an antibiotic resistance gene. The SAR-expressing Jurkat-NFAT-GFP cells were cocultured with the target cells at E:T ratio of approximately 1:2 for approximately 4 hours to 18 hours. When the interaction between SIRs and their target antigen results in activation of the NFAT pathway, GFP expression is induced. […] GFP expression was monitored by FACS analysis. The Jurkat-NFAT-GFP (parental) cells were used as control. The structure of different constructs can be determined based on their names. […] The sequence of the other constructs in the table can be similarly determined from their names and by referring to the different Tables of this disclosure that provide the names and SEQ ID NO of the different modules. Alternatively, the composition and modular architecture of the different SAR constructs can be determined from their sequences by bioinformatics tools, including using nucleic acid and amino acids homology searches. A SAR is considered positive in the assay in case the SAR expressing Jurkat-NFAT-GFP cells show greater % GFP positive cells when cultured with the target cell line as compared to parental Jurkat-NFAT-GFP cells. […] In general, the number +/-, +, 2+, 3+, 4+, 5+ refer to approximately 5%, 10%, 20%, 30%, 40% and 50% GFP positive cells. The % of GFP induction in the above assay is dependent not only the relative strength of the SAR but also, among other factors, on the relative level of expression of the SAR in the JNG cells and the relative level of expression of the target antigen in the target cell line. To control for the difference in gene transduction efficiency of the different SAR constructs, the experiment was conducted with JNG cells transduced with SAR constructs co-expressing a drug resistance gene (e.g., puromycin or PAC) followed by drug selection to generate a stable population of SAR-expressing cells. It is to be noted that the drug resistance gene (e.g., PAC) in the SAR constructs is optional and in vivo studies were conducted with SAR constructs lacking the PAC gene.

Nalm6 cells = test: JNG assay, co-culture with Nalm6 cells; conditions: co-culture with Nalm6 cells
How it was run: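 Jurkat NFAT-GFP reporter cells stably expressing lentivirally transduced SARs, drug-selected where possible, were co-cultured with target cells at E:T ≈1:2 for ~4–18 h. GFP measured by FACS; scored +/- to 5+ (~5–50% GFP+ cells) above parental reporter cells.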

Measured: GFP induction / activity

B1: SEQ ID NO: 22177: trispecific SAR construct targeting CD19 and CD20 and coexpressing the ligand binding domain of NKG2D (protein)
chain: MALPVTALLLPLALLLHAARPLFNQEVQIPLTESYCGPCPKNWICYKNNCYQFFDESKNWYESQASCMSQNASLLKVYSKEDQDLLKLVKSYHWMGLVHIPTNGSWQWEDGSILSPNLLTIIEMQKGDCALYASSFKGYIENCSTPNTYICMQRTVGGGGSGGGGSGGGGSDLFNQEVQIPLTESYCGPCPKNWICYKNNCYQFFDESKNWYESQASCMSQNASLLKVYSKEDQDLLKLVKSYHWMGLVHIPTNGSWQWEDGSILSPNLLTIIEMQKGDCALYASSFKGYIENCSTPNTYICMQRTVGTGGGGSGGGGSGGGGSEFDIQMTQSPSSLSASVGDRVTITCKASDHINNWLAWYQQKPGQAPKLLIYGATTLETGVPSRFSGSGSGTDYTLTISSLQPEDFATYYCQQSWNTPWTFGQGTKLEIKRLEDLKNVFPPEVAVFEPSKAEIAHTQKATLVCLATGFYPDHVELSWWVNGKEVHSGVCTDPQPLKEQPALNDSRYCLSSRLRVSATFWQNPRNHFRCQVQFYGLSENDEWTQDRAKPVTQIVSAEAWGRADCGITSASYHQGVLSATILYEILLGKATLYAVLVSALVLMAMVKRKDSRGRAKRSGSGATNFSLLKQAGDVEENPGPTSATMDWIWRILFLVGAATGAHSGPQVQLQESGGGLAQAGGSLRLSCAASGRTFSMGWFRQAPGKEREFVAAITYSGGSPYYASSVRGRFTISRDNAKNTVYLQMNSLKPEDTAVYYCAANPTYGSDWNAENWGQGTQVTVSSGSGGGGSGGGGSGGGGSFEQVQLQQPGAELVKPGASVKMSCKASGYAFSSYWINWMKQKPGQGLEWIGQIYPGDGDTNYNGKFKGRATLTADTSSSTAYMQLSSLTSEDSAVYFCARSITTVVGCAMDYWGQGTSVTVSSTRIQNPDPAVYQLRDSKSSDKSVCLFTDFDSQTNVSQSKDSDVYITDKCVLDMRSMDFKSNSAVAWSNKSDFACANAFNNSIIPEDTFFPSSDVPCDVKLVEKSFETDTNLNFQNLSVIGFRILLLKVAGFNLLMTLRLWSSRAKRSGSGVKQTLNFDLLKLAGDVESNPGPSRGHMTEYKPTVRLATRDDVPRAVRTLAAAFADYPATRHTVDPDRHIERVTELQELFLTRVGLDIGKVWVADDGAAVAVWTTPESVEAGAVFAEIGPRMAELSGSRLAAQQQMEGLLAPHRPKEPAWFLATVGVSPDHQGKGLGSAVVLPGVEAAERAGVPAFLETSAPRNLPFYERLGFTVTADVEVPEGPRTWCMTRKPGA
robust activity: RAJI cells | SKOV-3 cells | Nalm6 cells
